Source: patent US20060270591A1 (published 2006)

B1: VP16 AD fused full-length ARA55 (other)
chain: MPRSGAPKERPAEPLTPPPSYGHQPTGQSGESSGASGDKDHLYSTVCKPRSPKPAAPAAPPFSSSSGVLGTGLCELDRLLQELNATQFNITDEIMSQFPSSKVASGEQKEDQSEDKKRPSLPSSPSPGLPKASATSATLELDRLMASLPDFRVQNHLPASGPTQPPVVSSTNEGSPSPPEPTAKGSLDTMLGLLQSDLSRRGVPTQAKGLCGSCNKPIAGQVVTALGRAWHPEHFVCGGCSTALGGSSFFEKDGAPFCPECYFERFSPRCGFCNQPIRHKMVTALGTHWHPEHFCCVSCGEPFGDEGFHEREGRPYCRRDFLQLFAPRCQGCQGPILDNYISALSLLWHPDCFVCRECFAPFSGGSFFEHEGRPLCENHFHARRGSLCPTCGLPVTGRCVSALGRRFHPDHFACTFCLRPLTKGSFQERAGKPYCQPCFLKLFG
notes: also called VP16-ARA55
B2: GAL4 AD fused C-terminal region of ARA54 (C'-ARA54, amino acids 361-474) (other)
chain: ANFNQSGNIADSSLSFTFTNSSNGPNLITTQTNSQALSQPIASSNVHDNFMNNEITASKIDDGNNSKPLSPGWTDQTAYNAFGITTGMFNTTTMDDVYNYLFDDEDTPPNPKKERNEYLQADEANKRLLDQRYGKRVIQKALEEMESKEWLEKNSKSCPCCGTPIEKLDGCNKMTCTGCMQYFCWICMGSLSRANPYKHFNDPGSPCFNRLFYAVDVDDDIWEDEVED
notes: range 768-881; Clone from the prostate cDNA library; also called pACT2-C'-ARA54
B3: GST-ARA267N1 (ARA267 aa 1-382) (other, not shown: a dimerising Fc or GST)
chain: MPLKTRTALSDDPDSSTSTLGNMLELPGTSSSSTSQELPFCQPKKKSTPLKYEVGDLIWAKFKRRPWWPCRICSDPLINTHSKMKVSNRRPYRQYYVEAFGDPSERAWVAGKAIVMFEGRHQFEELPVLRRRGKQKEKGYRHKVPQKILSKWEASVGLAEQYDVPKGSKNRKCIPGSIKLDSEEDMPFEDCTNDPESEHDLLLNGCLKSLAFDSEHSADEKEKPCAKSRARKSSDNPKRTSVKKGHIQFEAHKDERRGKIPENLGLNFISGDISDTQASNELSRIANSLTGSNTAPGSFLFSSCGKNTAKKEFETSNGDSLLGLPEGALISKCSREKNKPQRSLVCGSKVKLCYIGAGDEEKRSDSISICTTSDDGSSDLDP
B4: AR-N (aa 36-553), in vitro translated (receptor)
chain: NPGPRHPEAASAAPPGASLLLLQQQQQQQQQQQQQQQQQQQQQETSPRQQQQQQGEDGSPQAHRRGPTGYLVLDEEQQPSQPQSALECHPERGCVPEPGAAVAASKGLPQQLPAPPDEDDSAAPSTLSLLGPTFPGLSSCSADLKDILSEASTMQLLQQQQQEAVSEGSSSGRAREASGAPTSSKDNYLGGTSTISDNAKELCKAVSVSMGLGVEALEHLSPGEQLRGDCMYAPLLGVPPAVRPTPCAPLAECKGSLLDDSAGKSTEDTAEYSPFKGGYTKGLEGESLGCSGSAAAGSSGTLELPSTLSLYKSGALDEAAAYQSRDYYNFPLALAGPPPPPPPPHPHARIKLENPLDYGSAWAAAAAQCRYGDLASLHGAGAAGPGSGSPSAAASSSWHTLFTAEEGQLYGPCGGGGGGGGGGGGGGGGGGGGGGGGEAGAVAPYGYTRPPQGLAGQESDFTAPDVWYPGGMVSRVPYPSPTCVKSEMGPWMDSYSGPYGDMRLETARDHVLPIDYYF
modifications: [35S]-methionine-labeled
notes: also called AR N-terminal
B5: ARA70N (aa 1-401) with wild-type FXXLF, expressed from pSG5 (other)
chain: MNTFQDQSGSSSNREPLLRCSDARRDLELAIGGVLRAEQQIKDNLREVKAQIHSCISRHLECLRSREVWLYEQVDLIYQLKEETLQQQAQQLYSLLGQFNCLTHQLECTQNKDLANQVSVCLERLGSLTLKPEDSTVLLFEADTITLRQTITTFGSLKTIQIPEHLMAHASSANIGPFLEKRGCISMPEQKSASGIVAVPFSEWLLGSKPASGYQAPYIPSTDPQDWLTQKQTLENSQTSSRACNFFNNVGGNLKGLENWLLKSEKSSYQKCNSHSTTSSFSIEMEKVGDQELPDQDEMDLSDWLVTPQESHKLRKPENGSRETSEKFKLLFQSYNVNDWLVKTDSCTNCQGNQPKGVEIENLGNLKCLNDHLEAKKPLSTPSMVTEDWLVQNHQDPCKVE

Experiments:
[1] = target: T1, GAL4 empty vector (GAL4 DBD alone) (UniProt P04386 1-147); assay: mammalian two-hybrid, DU145, CAT
T1 construct: range 1-147; Control

[2] = target: T2, GAL4 DBD fused with C-terminal fragment (aa 595-918) of wild-type AR (human, UniProt P04386 1-147 (Saccharomyces cerevisiae entry)); assay: yeast two-hybrid
T2 construct: range 1-147; also called pAS2-AR; pAS2-wtAR

[3] = target: T3, GAL4 DBD fused with C-terminal fragment (aa 595-918) of mARt877s (human, UniProt P04386 1-147 (Saccharomyces cerevisiae entry)); assay: yeast two-hybrid screen of prostate cDNA library
T3 construct: range 1-147; Yeast two-hybrid bait; the text also writes t877a in places; also called pAS2-mtARt877s; mtARt877s

[4] = target: B4; assay: GST pull-down
Method: (§1) After several washes with NETN buffer [20 mM Tris/pH 8.0, 100 mM NaCl, 6 mM MgCL₂, 1.0 mM EDTA, 1.0 mM DTT, 0.5% (vol/vol) Nonidet P-40, 1 mM PMSF, and 8% glycerol], the bound proteins were separated on SDS-PAGE gel and visualized by PhosphorImager (Molecular Dynamics).
(§2) To confirm the interaction between ARA267 and AR that was shown in the yeast two-hybrid system, GST pull-down assay was applied to confirm and further map the interaction domains between ARA267 and AR.

[5] = target: T4, GST-ARA267N2 (ARA267 aa 1-984) (human, UniProt Q96L73 280-1253); assay: GST pull-down
T4 sequence: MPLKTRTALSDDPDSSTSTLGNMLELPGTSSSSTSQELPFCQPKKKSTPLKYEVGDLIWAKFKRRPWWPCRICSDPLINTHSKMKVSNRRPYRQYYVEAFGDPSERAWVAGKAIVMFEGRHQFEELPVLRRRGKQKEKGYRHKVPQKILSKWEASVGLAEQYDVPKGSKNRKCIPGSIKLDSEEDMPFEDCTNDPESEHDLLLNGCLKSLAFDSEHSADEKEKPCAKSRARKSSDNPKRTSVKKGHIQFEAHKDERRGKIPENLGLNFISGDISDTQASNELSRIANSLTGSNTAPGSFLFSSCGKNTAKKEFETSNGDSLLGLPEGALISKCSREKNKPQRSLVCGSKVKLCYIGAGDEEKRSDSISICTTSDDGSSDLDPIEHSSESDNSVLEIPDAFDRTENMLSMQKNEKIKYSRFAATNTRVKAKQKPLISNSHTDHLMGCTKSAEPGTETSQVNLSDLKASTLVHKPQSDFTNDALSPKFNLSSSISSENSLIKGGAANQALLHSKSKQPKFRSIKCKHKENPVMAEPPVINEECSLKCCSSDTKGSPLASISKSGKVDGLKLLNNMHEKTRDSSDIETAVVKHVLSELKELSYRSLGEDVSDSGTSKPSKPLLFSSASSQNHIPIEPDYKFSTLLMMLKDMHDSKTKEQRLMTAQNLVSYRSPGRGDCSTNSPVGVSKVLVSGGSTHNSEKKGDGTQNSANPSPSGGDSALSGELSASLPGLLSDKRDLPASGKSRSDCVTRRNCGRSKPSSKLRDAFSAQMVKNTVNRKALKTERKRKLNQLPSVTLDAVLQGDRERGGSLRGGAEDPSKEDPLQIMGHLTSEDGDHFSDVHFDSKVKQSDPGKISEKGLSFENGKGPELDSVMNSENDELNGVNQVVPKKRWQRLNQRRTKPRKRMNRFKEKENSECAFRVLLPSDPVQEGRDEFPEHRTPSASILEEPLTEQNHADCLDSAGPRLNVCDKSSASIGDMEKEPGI
Method: as §1, §2

[6] = target: T5, GST-ARA267C (ARA267 aa 1716-2427) (human, UniProt Q96L73 1985-2696); assay: GST pull-down
T5 sequence: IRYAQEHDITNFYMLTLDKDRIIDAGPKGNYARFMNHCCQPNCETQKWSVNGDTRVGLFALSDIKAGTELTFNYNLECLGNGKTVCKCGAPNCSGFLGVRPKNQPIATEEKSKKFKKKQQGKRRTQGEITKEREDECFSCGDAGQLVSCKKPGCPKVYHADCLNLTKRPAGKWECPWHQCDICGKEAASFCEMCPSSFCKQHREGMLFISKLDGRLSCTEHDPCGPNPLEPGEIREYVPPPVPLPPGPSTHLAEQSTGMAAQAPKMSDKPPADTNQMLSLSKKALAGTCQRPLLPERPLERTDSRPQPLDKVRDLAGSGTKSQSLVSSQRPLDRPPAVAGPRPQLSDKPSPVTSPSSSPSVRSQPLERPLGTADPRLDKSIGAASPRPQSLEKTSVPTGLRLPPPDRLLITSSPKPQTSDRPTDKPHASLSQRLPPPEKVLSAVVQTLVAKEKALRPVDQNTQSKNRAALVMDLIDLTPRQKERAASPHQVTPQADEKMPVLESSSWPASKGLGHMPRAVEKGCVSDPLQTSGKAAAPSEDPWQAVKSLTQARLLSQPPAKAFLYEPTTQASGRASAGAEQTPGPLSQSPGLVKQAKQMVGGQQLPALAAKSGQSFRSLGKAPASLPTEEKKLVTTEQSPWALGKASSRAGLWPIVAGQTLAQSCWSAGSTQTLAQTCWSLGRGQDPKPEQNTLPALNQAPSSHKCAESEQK
Method: as §1, §2

[7] = target: T6, androgen receptor (AR), full-length, human (human, UniProt P10275 1-920); assay: cell-based or functional assay
T6 sequence: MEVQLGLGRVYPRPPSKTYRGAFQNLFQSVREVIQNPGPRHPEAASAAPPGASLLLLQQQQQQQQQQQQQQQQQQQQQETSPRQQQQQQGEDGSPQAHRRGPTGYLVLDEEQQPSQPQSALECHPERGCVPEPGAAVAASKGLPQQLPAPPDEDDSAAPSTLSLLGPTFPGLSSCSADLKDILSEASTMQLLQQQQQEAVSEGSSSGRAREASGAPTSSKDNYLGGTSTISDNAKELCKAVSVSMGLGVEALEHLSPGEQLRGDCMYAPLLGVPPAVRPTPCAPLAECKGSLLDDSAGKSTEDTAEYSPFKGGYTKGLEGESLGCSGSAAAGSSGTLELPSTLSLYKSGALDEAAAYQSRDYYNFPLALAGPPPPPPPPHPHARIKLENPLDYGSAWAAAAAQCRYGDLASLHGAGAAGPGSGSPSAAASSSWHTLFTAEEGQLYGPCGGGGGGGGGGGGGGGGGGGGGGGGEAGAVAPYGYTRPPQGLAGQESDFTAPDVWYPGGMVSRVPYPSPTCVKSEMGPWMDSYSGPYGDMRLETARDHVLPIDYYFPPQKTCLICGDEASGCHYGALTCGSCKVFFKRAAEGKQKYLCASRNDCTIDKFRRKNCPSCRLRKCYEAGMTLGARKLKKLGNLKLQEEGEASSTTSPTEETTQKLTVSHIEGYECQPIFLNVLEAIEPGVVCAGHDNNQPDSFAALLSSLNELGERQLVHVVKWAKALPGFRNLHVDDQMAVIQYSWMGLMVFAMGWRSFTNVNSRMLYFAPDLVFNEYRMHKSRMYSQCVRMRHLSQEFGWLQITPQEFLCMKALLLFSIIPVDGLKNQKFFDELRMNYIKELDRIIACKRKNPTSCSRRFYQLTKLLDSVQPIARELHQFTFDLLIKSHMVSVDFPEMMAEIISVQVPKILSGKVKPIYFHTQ

## B1
[1]
  binding result: no binding

## B2
[2]
  binding result: binds
[3]
  binding result: binds

## B3
[4]
  binding result: no binding

## B4
[5]
  binding result: no binding
[6]
  binding result: no binding

## B5
[7]
  AR transactivation (MMTV-LUC, COS-1, 10 nM T): 310 fold
